This note sets out measurements from PMC5974397, “Oligomeric states of microbial rhodopsins determined by high-speed atomic force microscopy and circular dichroic spectroscopy” (Scientific Reports, 2018).

“And” between values parts separate entries of the source, which are not always exact repeats. Equal entries are not always repeated.

Data set [1] deals with Anabaena sensory rhodopsin (Anabaena sp. PCC7120). Nature of the data set: circular dichroism spectroscopy (visible, exciton coupling of retinals); protein reconstituted in POPE/POPG (3:1) liposomes, protein:lipid 1:50; 100 mM NaCl, 20 mM Tris-HCl (pH 8.0), 25 °C.
Data set [2] has the same target. Nature of the data set: high-speed atomic force microscopy (HS-AFM); protein reconstituted in asolectin lipid membrane of limited size with MSP1E3D1, on APTES-treated mica; 20 mM Tris-HCl (pH 8.0), 50 mM NaCl, room temperature; oligomer seen subunit by subunit.
The target of data set [3] is Fulvimarina rhodopsin (Fulvimarina pelagi). Described as above.
Data set [4] deals with KR2_(278) (Krokinobacter eikastus). In words: high-speed atomic force microscopy (HS-AFM); protein reconstituted in asolectin lipid membrane with MSP1E3D1, on APTES-treated mica; acidic solution: 20 mM citrate-NaOH (pH 4.3), 50 mM NaCl, room temperature.
Data set [5] shares this target. In words: high-speed atomic force microscopy (HS-AFM); protein reconstituted in asolectin lipid membrane of limited size with MSP1E3D1, on APTES-treated mica; 20 mM Tris-HCl (pH 8.0), 50 mM NaCl, room temperature; oligomer seen subunit by subunit.
In data set [6] the target is Kineococcus radiotolerans actinorhodopsin (Kineococcus radiotolerans). The description is as above.
Data set [7] concerns the target Krokinobacter eikastus rhodopsin 2 (Krokinobacter eikastus). Nature of the data set: circular dichroism spectroscopy (visible, exciton coupling of retinals); protein solubilized in DDM. A general note: Circular dichroism is widely used to follow secondary structure.
Data set [8] shares this target. In words: high-speed atomic force microscopy (HS-AFM); protein reconstituted in asolectin lipid membrane of limited size with MSP1E3D1, on APTES-treated mica; 20 mM Tris-HCl (pH 8.0), 50 mM NaCl, room temperature; oligomer seen subunit by subunit.
For data set [9], the target named is Parvularcula oceani xenorhodopsin (Parvularcula oceani). Nature of the data set: circular dichroism spectroscopy (visible, exciton coupling of retinals); protein reconstituted in POPE/POPG (3:1) liposomes, protein:lipid 1:50; 100 mM NaCl, 20 mM Tris-HCl (pH 8.0), 25 °C.
Data set [10] shares this target. In words: high-speed atomic force microscopy (HS-AFM); protein reconstituted in asolectin lipid membrane of limited size with MSP1E3D1, on APTES-treated mica; 20 mM Tris-HCl (pH 8.0), 50 mM NaCl, room temperature; oligomer seen subunit by subunit.
Data set [11] addresses Quadrisphaera actinorhodopsin (Quadrisphaera sp. R2A-380-A). The data set is described as above.
Data set [12] concerns the molecule itself. The data set is described as above.
For data set [13], the target named is T1, Natronomonas pharaonis sensory rhodopsin II (Natronomonas pharaonis), P42196.
T1 chain: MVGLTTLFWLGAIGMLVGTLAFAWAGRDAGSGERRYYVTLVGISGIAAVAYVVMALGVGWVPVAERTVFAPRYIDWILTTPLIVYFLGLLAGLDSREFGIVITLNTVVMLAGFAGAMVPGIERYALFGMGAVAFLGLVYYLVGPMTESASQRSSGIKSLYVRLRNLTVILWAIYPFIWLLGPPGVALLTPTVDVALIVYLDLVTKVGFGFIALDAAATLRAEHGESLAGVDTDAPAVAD
The data set is described as above. To be noted: remark: other sources report otherwise.

The term stoichiometry N denotes a count of units in the complex or per binding partner. With “Anabaena sensory rhodopsin (natural protein)”, the stoichiometry N in [1] and in data set [2] was 3 each time.

Fulvimarina rhodopsin (natural protein) displayed a stoichiometry N in data set [3] of 5.

Turning to KR2_(278) (domain or fragment), the stoichiometry N in data set [4] and in [5] was 5 in each case.

“Kineococcus radiotolerans actinorhodopsin (natural protein)” yielded a stoichiometry N in data set [6] of 5.

As to “Krokinobacter eikastus rhodopsin 2 (natural protein)”, the stoichiometry N in [7] and in data set [8] was 5 each time.

“Parvularcula oceani xenorhodopsin (natural protein)”: the stoichiometry N in [9] and in data set [10] was 3 each time.

Take “Quadrisphaera actinorhodopsin (natural protein)”: the stoichiometry N in data set [11] is 5.

B1: Natronomonas pharaonis halorhodopsin (natural protein, UniProt P15647 1-291, looked up)
chain: MTETLPPVTESAVALQAEVTQRELFEFVLNDPLLASSLYINIALAGLSILLFVFMTRGLDDPRAKLIAVSTILVPVVSIASYTGLASGLTISVLEMPAGHFAEGSSVMLGGEEVDGVVTMWGRYLTWALSTPMILLALGLLAGSNATKLFTAITFDIAMCVTGLAAALTTSSHLMRWFWYAISCACFLVVLYILLVEWAQDAKAAGTADMFNTLKLLTVVMWLGYPIVWALGVEGIAVLPVGVTSWGYSFLDIVAKYIFAFLLLNYLTSNESVVSGSILDVPSASGTPADD
modifications: retinal chromophore
notes: Halorhodopsin (chloride pump) from Natronomonas pharaonis; also called NpHR
As for B1, the “stoichiometry N” value in data set [12] worked out at 3.

B2: Gloeobacter rhodopsin (natural protein, Gloeobacter violaceus PCC 7421, UniProt Q7NP59 1-298, looked up)
chain: MLMTVFSSAPELALLGSTFAQVDPSNLSVSDSLTYGQFNLVYNAFSFAIAAMFASALFFFSAQALVGQRYRLALLVSAIVVSIAGYHYFRIFNSWDAAYVLENGVYSLTSEKFNDAYRYVDWLLTVPLLLVETVAVLTLPAKEARPLLIKLTVASVLMIATGYPGEISDDITTRIIWGTVSTIPFAYILYVLWVELSRSLVRQPAAVQTLVRNMRWLLLLSWGVYPIAYLLPMLGVSGTSAAVGVQVGYTIADVLAKPVFGLLVFAIALVKTKADQESSEPHAAIGAAANKSGGSLIS
modifications: retinal chromophore
notes: Gloeobacter rhodopsin (GR), proton pump, from Gloeobacter violaceus PCC 7421; also called GR; rhodopsin from Gloeobacter violaceus PCC 7421; not shown: His6, C-terminal, kept
Consider B2, for which the “stoichiometry N” value in [12] stood at 5.

B3: Natronomonas pharaonis sensory rhodopsin II, P42196 1-239 (natural protein)
chain: T1 chain
modifications: here or on the partner: retinal chromophore; retinal chromophore
B3 returned a stoichiometry N in [13] of 3.

B4: green-absorbing proteorhodopsin (natural protein, uncultured marine gamma proteobacterium, UniProt Q9F7P4 18-249, looked up)
chain: AGGGDLDASDYTGVSFWLVTAALLASTVFFFVERDRVSAKWKTSLTVSGLVTGIAFWHYMYMRGVWIETGDSPTVFRYIDWLLTVPLLICEFYLILAAATNVAGSLFKKLLVGSLVMLVFGYMGEAGIMAAWPAFIIGCLAWVYMIYELWAGEGKSACNTASPAVQSAYNTMMYIIIFGWAIYPVGYFTGYLMGDGGSALNLNLIYNLADFVNKILFGLIIWNVAVKESSNA
modifications: retinal chromophore
notes: Green-absorbing proteorhodopsin (GPR), proton pump, from uncultured marine gamma proteobacterium; Pentamers (76%) and hexamers (24%) coexist in the lipid; copies gives the dominant form; also called green proteorhodopsin
For the molecule B4, the “stoichiometry N” value in [12] is 5 and 6.
